Test results as given in the domain aggregation screens of Martell et al. (2025).

Assay: soluble fraction after stress (log2 fold change); higher = more stays soluble; pooled small domains, quantitative proteomics
Settings: stress: pH 4
Method in brief: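 With high-throughput quantitative proteomics, pooled custom libraries of small protein domains were measured after pH 4 stress. Each domain's soluble amount after the stress gives a fold change taken as aggregation propensity. Higher log2 values mean more of the domain stayed soluble.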

Row | Sequence | soluble fraction (log2)
1 | HMSVTIDAGGKVYLQESEIADDQLVPRLVAISNNGYDKPIYLRADKTVGYGRVAEVMSLLNAAGFTKLVLV | -0.244
2 | HMTMKVTADILNMRSEASTNSDIVTKLKKDDELKVIEETKDDDGVTWVKVDFNGQVGFVSKEFLG | -0.623
3 | HMGKTEMPFSTFLTEVDKGNIVSVDIRGSEISGNFRDGKGFKTYSPNYPNLVEKLSAKGVAITAGPR | 0.295
4 | HMEPKIKQIVPNVVNYPVEDAKNVLVNSGLIVQIRGQGNIVYDQVPKGGAEVTRGTTVILDLNPPPGA | -0.768
5 | HMDSLEIEEPITVKSLSAASGLKISDIIRKLMQEGIMATANQVIDREQAEAVLIDYNVDLVVKR | 0.0392
6 | HMNRTKYYDFEGHPAKVVRLTLPVYLNKIGDEVVVYDSQKFAREASPISESQYNRMVAEIFQP | -0.0162
7 | HMGDVATVKLDNNGLLNMRKSDARGADIVARIPNGTVVQVLNRETEWTQVRYDGKEGYVMSSFLQFAE | 0.0427
8 | HMFQYEKIKDYILTGLEEGTWQAGDKIPSEAELVMSLNVSRMTVNRAVRELANSGLLVRIPGAGTFVATE | -0.886
9 | HMDVSLVEQTQRDILEYISKNNSNAQLPKEQEFVGLLGVSRVVVREALSRLRALGIIETKRKKGTVVVVPE | -0.31
10 | HMGDFLLQVDFPPALLEMLPEGKRQAAIGVLSHDPRPAYQRTPGRVYGLNFAGHNIRFAVSENLLTVLEV | -0.302
11 | HMSKIRTFRVKTVAVDQAYQVLKDYSPIKISTESNAVIIDLDESKTPAEIAGYLEKNGIKVDNIEVIAESE | -0.148
12 | HMGEKTLSEKVYDRLKELIMDGELERGTKITETSIAKMFDVSPTPVREAFRKLASDGLIEVASWKGVIVKG | 0.338
13 | HMTTETGTVKWFNEGKGFGFIAPDGGGKDLFAHFKEIQGSGFKTLTENQRVQFEVTQGQKGPQASNIRTL | -0.183
14 | HMTKEEFLDEIKKELGFMPYEEVIKAEKYFESYFNGSEADEKVIERFGSPKYAAQNYYRTHVAN | 0.0371
15 | HMKSVQIPQSITVKEFSQAIEVSVADVIKKLMSMGVMVSQNKEINVDTAILVGEEFGVTVNVA | -0.0481
16 | HMRIYTKDEYLAELSRYLHKLPQDDYESAMAYFREYFEEAGPENEAQAMRDLGTPKEAASEILQNLLH | -0.162
17 | HMAPLVTLEADGNGAVKLSNLAGHSIREVAGALGGAGLSLIPVGSGTSWKQNPAPGTVLHSGDTVTVYF | 0.22
18 | HMHPMVEAYLADLDRALSGSDPREHAETMSAVREHLADAIAPDATAEQVRHALDELGPVEAIAAG | -0.239
19 | HMRYLHTMIRVSDLEESLNFFKLLDIHEVSRKENEQARFTLVFLSATGDEKLVENAKSPLIELTFN | -0.471

Row | Sequence | soluble fraction (log2)
20 | HMNVDALVGQRGRVTQTFDPGLRLGRVAVGGDDWRAETTTDQPLREGDLVEVVSVESNTLIVRPIA | 0.0146
21 | HMRGFTDFEHIEKEYLATIEKLNWPDGVTLPDKLEGEDTGTSFQVGYGDTRASNLWEYSWMK | -1.15
22 | HMPRENLAYTLIMDGIVQHKNLPRASVTEAWLKQELQKAGINDFRQVLIAGIDSKGQLYFQPKQK | -0.392
23 | HMGLDMSLEREQHRALREASQWYARLADEQVDSDAERAWRHWVAADEANQRAWQYIEAVSQRFDG | -0.829
24 | HMNPFTHEEINLMSIYNAAGTREGLIAALTEMWGYLDAEETELRELADSALAKLRGITDAEYAALELE | -2.05
25 | HMSVDEVEALYLKIAEDRLEGKLPDKVSESDLMRRYGLTKAQLGAILQRIVHEGWIERTPGHGWRFLPIL | -0.368
26 | HMDSIQMKNNSILYYGNTAGYLDAKRNTAVVDPMFRTDEMESYLSEQKGLSVEWASGTYDRLT | -0.921
27 | HMKMLSIQRREAIRALLLEKESITIAEVMEKFQISVETARRDFDALADEGFLNKVYGGATLKK | -1.24
28 | HMLPGVPVVAGKTQSAATRILKAAGYAVSVVREEAFDGVTGTVLRTSPEAGSPLAPGSRVTLVVLQVV | -0.114
29 | HMPELTASDEADLKALVGGDQGFEQMANWARSNLGEEEINRFDAVVDSNNKDAIHMAIQAMQARMNA | -0.394
30 | HMGPVRDLGLLESAAHRPTTALWGRDVYATIEKKAAALLDSLVRDRPLADGNKRLGWLAALV | 0.0116
31 | HMGNLIIFYDAQTGSAPLLKAVKTSGATLVYEYKNLHGIAIRPSSKTSIEDAIAYFKKVNGVLSVE | 0.0783
32 | HMGNGALLTLTVKERQVIQLVAEGKSNKQIARDLNVTPETIKSHMKNIFAKLKVDNRAQAAVMVQQ | 0.0874
33 | HMEFFIIDHNGQQAGPFSFDQLVQKGISPETLVWKQGMADWNPAWKVEELKAVLEAVEANQSNQKAQ | -1.3
34 | HMDSVFGVVTSSDGVKLRKEASTISKVLTVLPYGTEVDVDRIGSEWIRIVTDGGQKGYVSADYLAVREGER | -0.1
35 | HMRDPVDKDNYLGDWDKNKTYPAGYVMTFGDKNYLALQEVPAGTKPGATDPDPFWVLDTGKTLKD | 0.163
36 | HMNVEATAETLLALLKKNGGSLPFGDKSDPEAIQSQLKMSKKTFKKAAGTLFKKKLVRIEDHGIFL | 0.0517
37 | HMDTIVVAARSIQARQTLTESDLRVEEQEIGAASDKYYTDIAEAVGLVSSRRLSPGQPILRTM | -0.273
38 | HMPNTLAGIERYLGSGMVKGIGPVYASRLVSAFGTAVFDVIEQTPERLREIDGIGEKRTRKITSGWADQ | -0.242
